For orientation: stoichiometry N means a count of units in the complex or per binding partner. One may read the Kd as the constant that tells how readily two partners part at equilibrium. Read a low Kd as a tighter complex.

In assay [1] the target is ATM/Tel1, active state (endogenously activated by DNA damage) (Schizosaccharomyces pombe) (UniProt O74630). Kind of assay: mass photometry; active ATM/Tel1 incubated with over-saturated full-length CHK2, complex fractionated by GraFix.
Assay [2] shares this target. The assay is described as follows: cryo-EM structure; active wild-type ATM/Tel1 incubated with the CHK2 63-74 peptide and AMP-PNP in vitro; Structure 2, 3.6 Å.
For assay [3], the target named is ATM/Tel1, basal state (Schizosaccharomyces pombe) (UniProt O74630). The assay is described as follows: cryo-EM structure; basal state; resolution improved from 7.8 Å to 4.3 Å with a new algorithm.
The next assay relates to active ATM/Tel1 dimer. The assay is described as follows: Mass photometry of GraFix-assembled ATM/Tel1-CHK2 complex. In kind it is binding, Schizosaccharomyces pombe. As to conditions: over-saturated full-length CHK2, AMP-PNP, mass photometry 25 °C, 20 nM final protein. Here is the method: to SDS- PAGE and analyzed by Western blot (WB) using pan- acetylated -Lysine (Rabbit monoclonal, Cat# 9441S, Cell Signaling Technology). and phospho-ATM/ATR substrate (pSQ/pTQ motif, Rabbit monoclonal, Cat# 6966, Cell Signaling Technology) antibodies.
Surface plasmon resonance
Interaction analysis between ATM/Tel1 in different states and CHK2 was performed at 20 °C using a Biacore 8K (GE Healthcare) by immobilizing CHK2 onto a CM5 sensor chip. A twofold dilution series of […] was injected at a flow rate of 30 µl min –1 in PBS running buffer. All conditions were tested for at least five different antibody concentrations, and the blank channel of the chip served as the negative control. After each cycle, the sensor was regenerated with 10 mM NaOH.
Data processing and kinetic analyses were performed using Biacore 8K Evaluation Software […]
To determine the stoichiometry and mass distribution between active ATM/Tel1 and its substrate CHK2, standard mass photometry landing assays were performed at 25 °C using a TwoMP instrument (Refeyn) mounted on an active anti-vibration platform. […] Bovine serum albumin standards (Beyotime) were measured on the same day to calibrate extracted particle contrast relative to mass. […]

Assay [4] addresses ATM/Tel1, active state (endogenously activated by DNA damage) (Schizosaccharomyces pombe, UniProt O74630 1-2812, autophosphorylation and acetylation (sites not given)). Kind of assay: SPR.
Assay [5] addresses ATM/Tel1, basal state (Schizosaccharomyces pombe, UniProt O74630 1-2812). The assay is described as follows: SPR. (SPR reads the build-up and loss of mass on a sensor chip optically.)
Assay [6] concerns the target T1, ATM/Tel1, basal state (Schizosaccharomyces pombe, UniProt O74630 1-2812).
T1 construct: ATM/Tel1 kinase of Schizosaccharomyces pombe, basal state, symmetric homodimer; also called basal ATM/Tel1; basal-state ATM/Tel1; source: purified
Kind of assay: SPR; CHK2 (full length or peptide) at varied concentrations on basal or active ATM/Tel1. As to conditions: both partners purified.

ATM/Tel1, active state (endogenously activated by DNA damage), sequence (O74630 whole entry): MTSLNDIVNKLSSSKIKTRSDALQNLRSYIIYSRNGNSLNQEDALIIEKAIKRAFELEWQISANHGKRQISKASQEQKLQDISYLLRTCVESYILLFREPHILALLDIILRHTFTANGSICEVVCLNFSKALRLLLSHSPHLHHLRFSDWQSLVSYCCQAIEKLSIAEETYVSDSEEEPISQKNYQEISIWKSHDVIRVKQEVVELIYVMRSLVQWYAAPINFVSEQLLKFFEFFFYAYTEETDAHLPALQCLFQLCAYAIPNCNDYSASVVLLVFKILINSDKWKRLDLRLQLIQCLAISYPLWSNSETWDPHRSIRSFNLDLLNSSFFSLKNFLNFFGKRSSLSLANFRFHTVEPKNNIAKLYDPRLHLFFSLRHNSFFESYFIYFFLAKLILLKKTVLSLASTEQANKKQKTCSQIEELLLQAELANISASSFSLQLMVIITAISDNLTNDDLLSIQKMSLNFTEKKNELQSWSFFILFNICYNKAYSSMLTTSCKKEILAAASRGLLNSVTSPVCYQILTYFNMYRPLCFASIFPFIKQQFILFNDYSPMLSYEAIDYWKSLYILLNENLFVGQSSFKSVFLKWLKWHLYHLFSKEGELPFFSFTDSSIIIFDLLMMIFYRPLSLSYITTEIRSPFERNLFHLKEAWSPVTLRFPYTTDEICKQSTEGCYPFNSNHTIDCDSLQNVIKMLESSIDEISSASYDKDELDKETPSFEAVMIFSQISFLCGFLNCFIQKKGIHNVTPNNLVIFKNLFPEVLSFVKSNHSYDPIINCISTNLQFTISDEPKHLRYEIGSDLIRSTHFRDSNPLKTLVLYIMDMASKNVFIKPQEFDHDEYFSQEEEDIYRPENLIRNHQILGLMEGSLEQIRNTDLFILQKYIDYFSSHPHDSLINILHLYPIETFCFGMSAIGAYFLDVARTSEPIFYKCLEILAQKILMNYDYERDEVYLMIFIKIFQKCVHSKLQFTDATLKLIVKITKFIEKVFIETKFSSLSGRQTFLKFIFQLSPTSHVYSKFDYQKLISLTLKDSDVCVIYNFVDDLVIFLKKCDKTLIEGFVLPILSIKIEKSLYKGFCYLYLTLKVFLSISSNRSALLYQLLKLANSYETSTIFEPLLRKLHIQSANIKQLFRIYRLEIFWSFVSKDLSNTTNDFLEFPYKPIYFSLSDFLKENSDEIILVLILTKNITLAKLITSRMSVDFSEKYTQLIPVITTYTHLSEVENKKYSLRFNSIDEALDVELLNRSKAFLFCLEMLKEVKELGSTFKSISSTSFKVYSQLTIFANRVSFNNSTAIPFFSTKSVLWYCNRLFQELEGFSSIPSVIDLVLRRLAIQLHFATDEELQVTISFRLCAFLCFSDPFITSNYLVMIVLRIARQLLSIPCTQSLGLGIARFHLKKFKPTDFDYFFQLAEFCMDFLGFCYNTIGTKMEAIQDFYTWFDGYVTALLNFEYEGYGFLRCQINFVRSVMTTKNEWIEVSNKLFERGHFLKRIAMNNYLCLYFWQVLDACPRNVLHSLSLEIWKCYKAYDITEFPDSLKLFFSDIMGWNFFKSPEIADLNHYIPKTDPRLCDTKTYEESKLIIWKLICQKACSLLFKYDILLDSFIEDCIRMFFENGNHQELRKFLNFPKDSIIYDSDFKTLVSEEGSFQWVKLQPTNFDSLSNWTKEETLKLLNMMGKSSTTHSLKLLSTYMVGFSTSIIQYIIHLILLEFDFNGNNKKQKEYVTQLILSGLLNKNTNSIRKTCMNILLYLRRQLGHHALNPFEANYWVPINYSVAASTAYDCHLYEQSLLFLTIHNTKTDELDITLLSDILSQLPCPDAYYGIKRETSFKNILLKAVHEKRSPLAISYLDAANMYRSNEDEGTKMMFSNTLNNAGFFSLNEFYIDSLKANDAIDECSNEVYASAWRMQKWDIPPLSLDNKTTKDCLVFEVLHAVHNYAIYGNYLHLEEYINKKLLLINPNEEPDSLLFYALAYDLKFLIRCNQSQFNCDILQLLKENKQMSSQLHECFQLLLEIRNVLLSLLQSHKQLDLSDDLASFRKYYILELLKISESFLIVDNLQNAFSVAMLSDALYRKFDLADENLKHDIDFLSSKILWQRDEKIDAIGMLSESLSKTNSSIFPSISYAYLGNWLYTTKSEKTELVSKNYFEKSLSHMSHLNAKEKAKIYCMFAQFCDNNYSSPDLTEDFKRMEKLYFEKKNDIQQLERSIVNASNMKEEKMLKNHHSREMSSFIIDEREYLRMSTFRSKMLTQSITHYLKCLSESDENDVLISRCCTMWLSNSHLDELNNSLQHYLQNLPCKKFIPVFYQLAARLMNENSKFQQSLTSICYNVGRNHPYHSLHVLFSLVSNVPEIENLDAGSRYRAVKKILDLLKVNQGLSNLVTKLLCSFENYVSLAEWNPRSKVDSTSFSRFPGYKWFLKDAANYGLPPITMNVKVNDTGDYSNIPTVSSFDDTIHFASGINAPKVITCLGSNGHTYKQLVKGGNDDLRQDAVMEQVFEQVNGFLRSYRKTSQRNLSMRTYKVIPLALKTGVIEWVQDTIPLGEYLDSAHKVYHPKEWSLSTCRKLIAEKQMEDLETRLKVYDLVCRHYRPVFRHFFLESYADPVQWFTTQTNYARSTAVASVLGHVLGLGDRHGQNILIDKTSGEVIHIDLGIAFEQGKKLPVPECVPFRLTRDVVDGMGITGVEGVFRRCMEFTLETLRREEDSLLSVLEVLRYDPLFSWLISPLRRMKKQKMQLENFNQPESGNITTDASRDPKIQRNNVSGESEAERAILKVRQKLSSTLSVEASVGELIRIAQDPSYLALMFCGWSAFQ

In the case of “ATM/Tel1, active state (endogenously activated by DNA damage), O74630 1-2812”, the stoichiometry N in assay [1] and in assay [2] was 2 throughout.

Molecule ATM/Tel1, basal state, O74630 1-2812 had a stoichiometry N in assay [3] of 2.

In the case of “full-length CHK2: human full-length CHK2, C-terminal 6× His tag, expressed in E. coli BL21(DE3)”, in the assay with active ATM/Tel1 dimer, the “CHK2 molecules bound per ATM/Tel1 dimer” value is reported as “only one CHK2 molecule is bound to an ATM/Tel1 dimer”.

B1: CHK2 substrate peptide (CHK2 63-74) (peptide, UniProt O96017 63-74, looked up)
peptide: LETVSTQELYSI
notes: CHK2 residues 63-74; also called CHK2 peptide
B1: the Kd in assay [4] turned out to be 2.37 µM; with ATM/Tel1, basal state [5] it was 296 µM. The “fold reduction of affinity against active ATM/Tel1” value with ATM/Tel1, basal state [6] was over 120 fold.
